Measured values from paper doi:10.1101/2025.11.26.690573.

Assays:
[1] = target: biotinylated N8~CRL1 with wild type RBX1 (UniProt Q15843); assay: BLI; CSN and N8~CRL1 in a saturating amount of CSN5i-3; who was immobilised not given
[2] = target: biotinylated N8~CRL1 with wild type RBX1 (UniProt Q15843); assay: BLI; CSN and N8~CRL1 in a saturating amount of CSN5i-1a; who was immobilised not given

KD with CSN5i-3 [1]: 26 nM
KD with CSN5i-1a [2]: 1800 nM
Substance: COP9 signalosome (CSN), eight-subunit complex, tag-free (from UniProt Q13098 1-491; P61201 1-443; Q9UNS2 1-409; Q9BT78 1-406; Q92905 1-334; Q7L5N1 1-327; Q9H9Q2 1-239; Q99627 1-209)
